The values below come from patent US20120220489A1.

Assay [1] concerns the target ERK1 (p44) inactive (GST tagged), human, Invitrogen PV 3312 (human) (UniProt P27361). As to the kind of experiment: RPA standard curve, assay 2, LOD back-calculated from one-site fit.
In assay [2] the target is Erk1-BSA 2.7x peptide-protein conjugate (human; bovine). Described as above.
The target of assay [3] is ERK2 (p42), human, Biosource PHO 0104 (human) (UniProt P28482). As to the kind of experiment: RPA, competition: +free H3 peptide 1000 nM.
Sequence of UniProt P28482 (P28482 2-360 limits assumed): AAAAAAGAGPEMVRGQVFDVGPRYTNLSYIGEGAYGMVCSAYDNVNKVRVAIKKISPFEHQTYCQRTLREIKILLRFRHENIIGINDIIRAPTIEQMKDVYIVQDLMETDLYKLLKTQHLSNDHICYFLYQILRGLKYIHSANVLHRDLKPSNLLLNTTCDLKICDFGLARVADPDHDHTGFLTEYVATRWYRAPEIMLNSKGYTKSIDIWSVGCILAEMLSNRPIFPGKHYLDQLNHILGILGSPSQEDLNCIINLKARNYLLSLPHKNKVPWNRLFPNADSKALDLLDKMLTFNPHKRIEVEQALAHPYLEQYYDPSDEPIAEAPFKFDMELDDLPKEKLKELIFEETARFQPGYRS
Assay [4] concerns the target Histone H3 recombinant protein, calf, Roche 11 034 758 001 (calf) (UniProt P68432). Kind of assay: RPA, competition: +free H3 peptide 1000 nM.
For assay [5], the target named is pErk1/2-BSA 2.7x peptide-protein conjugate (human; bovine). Kind of assay: RPA, competition: +free H3 peptide 1000 nM.
Sequence of pErk1/2-BSA 2.7x peptide-protein conjugate (human; bovine) (P02769 25-607 limits assumed): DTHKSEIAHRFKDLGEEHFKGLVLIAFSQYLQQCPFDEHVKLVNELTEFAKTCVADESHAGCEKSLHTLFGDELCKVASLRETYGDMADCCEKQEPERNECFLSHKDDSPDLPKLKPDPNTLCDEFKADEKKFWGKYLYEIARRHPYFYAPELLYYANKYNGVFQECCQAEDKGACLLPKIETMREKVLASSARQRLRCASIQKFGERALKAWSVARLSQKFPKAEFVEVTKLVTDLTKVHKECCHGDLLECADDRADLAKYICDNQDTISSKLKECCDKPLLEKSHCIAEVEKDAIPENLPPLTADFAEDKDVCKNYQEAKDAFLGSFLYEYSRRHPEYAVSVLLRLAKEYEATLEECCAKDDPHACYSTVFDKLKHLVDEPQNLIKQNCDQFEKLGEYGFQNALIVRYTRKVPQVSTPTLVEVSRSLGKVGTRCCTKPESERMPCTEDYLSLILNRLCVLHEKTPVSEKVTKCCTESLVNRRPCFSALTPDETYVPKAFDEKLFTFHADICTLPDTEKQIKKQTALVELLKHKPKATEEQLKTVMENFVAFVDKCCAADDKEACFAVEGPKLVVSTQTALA
In assay [6] the target is pRb recombinant protein, human, Active Motif 31 128 (human) (UniProt P06400). Kind of assay: RPA, competition: +free H3 peptide 1000 nM.
Sequence of UniProt P06400 (P06400 whole entry): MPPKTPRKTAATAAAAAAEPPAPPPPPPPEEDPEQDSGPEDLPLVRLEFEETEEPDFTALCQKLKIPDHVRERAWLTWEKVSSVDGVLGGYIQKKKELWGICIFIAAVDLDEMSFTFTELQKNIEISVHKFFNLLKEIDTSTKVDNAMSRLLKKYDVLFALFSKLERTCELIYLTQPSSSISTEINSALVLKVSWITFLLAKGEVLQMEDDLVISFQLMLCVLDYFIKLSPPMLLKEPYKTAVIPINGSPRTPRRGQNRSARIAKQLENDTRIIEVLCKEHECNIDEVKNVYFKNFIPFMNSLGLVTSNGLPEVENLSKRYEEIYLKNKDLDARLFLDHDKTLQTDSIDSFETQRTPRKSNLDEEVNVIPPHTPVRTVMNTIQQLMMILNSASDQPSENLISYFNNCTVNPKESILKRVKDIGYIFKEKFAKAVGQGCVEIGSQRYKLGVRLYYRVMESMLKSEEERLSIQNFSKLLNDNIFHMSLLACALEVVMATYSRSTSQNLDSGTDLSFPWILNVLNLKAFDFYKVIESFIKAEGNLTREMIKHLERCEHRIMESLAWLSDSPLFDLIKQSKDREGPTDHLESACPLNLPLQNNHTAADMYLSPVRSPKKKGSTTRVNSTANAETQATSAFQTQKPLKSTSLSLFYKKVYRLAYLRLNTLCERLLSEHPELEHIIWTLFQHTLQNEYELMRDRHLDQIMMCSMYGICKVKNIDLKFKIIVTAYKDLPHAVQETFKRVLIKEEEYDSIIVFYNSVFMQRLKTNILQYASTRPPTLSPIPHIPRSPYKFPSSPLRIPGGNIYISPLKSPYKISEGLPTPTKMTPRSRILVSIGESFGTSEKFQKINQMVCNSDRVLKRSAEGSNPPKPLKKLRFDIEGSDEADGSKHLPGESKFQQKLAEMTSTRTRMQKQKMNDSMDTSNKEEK
The target of assay [7] is pRb-BSA 1x peptide-protein conjugate (bovine). As to the kind of experiment: RPA, competition: +free H3 peptide 1000 nM.
Sequence of pRb-BSA 1x peptide-protein conjugate (bovine) (P02769 25-607 limits assumed): as the sequence (P02769 25-607 limits assumed) above
Assay [8] addresses ERK1 (p42) active (phospho), human, Active Motif 31 152 (human) (UniProt P27361). As to the kind of experiment: RPA, competition: +free H3 peptide 10000 nM.
Assay [9] addresses ERK1 (p44) active (GST tagged), human, Invitrogen PV 3311 (human) (UniProt P27361). Kind of assay: RPA, competition: +free H3 peptide 10000 nM.
The target of assay [10] is ERK1 (p44) inactive (GST tagged), human, Invitrogen PV 3312 (human) (UniProt P27361). As to the kind of experiment: RPA, competition: +free H3 peptide 10000 nM.
Assay [11] concerns the target ERK1 (p44), human, Cell Signaling Technology 7416 (human) (UniProt P27361). As to the kind of experiment: RPA, competition: +free H3 peptide 10000 nM.
For assay [12], the target named is ERK2 (p42), human, Biosource PHO 0104 (human) (UniProt P28482). As to the kind of experiment: RPA, competition: +free H3 peptide 10000 nM.
Assay [13] deals with Erk1-BSA 2.7x peptide-protein conjugate (human; bovine). Kind of assay: RPA, competition: +free H3 peptide 10000 nM.
Assay [14] deals with Histone H3 recombinant protein, calf, Roche 11 034 758 001 (calf) (UniProt P68432). As to the kind of experiment: RPA, competition: +free H3 peptide 10000 nM.
For assay [15], the target named is Histone H3 recombinant protein, human, Upstate 14-494 (human) (UniProt P68431). As to the kind of experiment: RPA, competition: +free H3 peptide 10000 nM.
Assay [16] deals with Histone H3-BSA 2.7x peptide-protein conjugate (bovine). Kind of assay: RPA, competition: +free H3 peptide 10000 nM.
Sequence of Histone H3-BSA 2.7x peptide-protein conjugate (bovine) (P02769 25-607 limits assumed): as above
The target in assay [17] is pErk1/2-BSA 2.7x peptide-protein conjugate (human; bovine). As to the kind of experiment: RPA, competition: +free H3 peptide 10000 nM.
In assay [18] the target is pRb recombinant protein, human, Active Motif 31 128 (human) (UniProt P06400). As to the kind of experiment: RPA, competition: +free H3 peptide 10000 nM.
Assay [19] has as its target pRb-BSA 1x peptide-protein conjugate (bovine). Kind of assay: RPA, competition: +free H3 peptide 10000 nM.
Assay [20] has as its target Histone H3 recombinant protein, human, Upstate 14-494 (human) (UniProt P68431). As to the kind of experiment: RPA standard curve, assay 2, LOD back-calculated from one-site fit.
The target in assay [21] is Histone H3-BSA 2.7x peptide-protein conjugate (bovine). The assay is described as above.
Assay [22] addresses ERK1 (p44) inactive (GST tagged), human, Invitrogen PV 3312 (human) (UniProt P27361). Kind of assay: RPA, competition: +free pErk1/2 peptide 100 nM.
The target of assay [23] is pRb-BSA 1x peptide-protein conjugate (bovine). As to the kind of experiment: RPA, competition: +free pErk1/2 peptide 100 nM.
The target in assay [24] is ERK1 (p42) active (phospho), human, Active Motif 31 152 (human) (UniProt P27361). Kind of assay: RPA, competition: +free pErk1/2 peptide 1000 nM.
Assay [25] addresses ERK1 (p44) active (GST tagged), human, Invitrogen PV 3311 (human) (UniProt P27361). Kind of assay: RPA, competition: +free pErk1/2 peptide 1000 nM.
The target in assay [26] is ERK1 (p44) inactive (GST tagged), human, Invitrogen PV 3312 (human) (UniProt P27361). Kind of assay: RPA, competition: +free pErk1/2 peptide 1000 nM.
In assay [27] the target is ERK1 (p44), human, Cell Signaling Technology 7416 (human) (UniProt P27361). As to the kind of experiment: RPA, competition: +free pErk1/2 peptide 1000 nM.
Assay [28] deals with ERK2 (p42), human, Biosource PHO 0104 (human) (UniProt P28482). Kind of assay: RPA, competition: +free pErk1/2 peptide 1000 nM.
The target of assay [29] is Erk1-BSA 2.7x peptide-protein conjugate (human; bovine). As to the kind of experiment: RPA, competition: +free pErk1/2 peptide 1000 nM.
Assay [30] deals with Histone H3 recombinant protein, calf, Roche 11 034 758 001 (calf) (UniProt P68432). Kind of assay: RPA, competition: +free pErk1/2 peptide 1000 nM.
The target in assay [31] is Histone H3 recombinant protein, human, Upstate 14-494 (human) (UniProt P68431). Kind of assay: RPA, competition: +free pErk1/2 peptide 1000 nM.
Assay [32] concerns the target Histone H3-BSA 2.7x peptide-protein conjugate (bovine). As to the kind of experiment: RPA, competition: +free pErk1/2 peptide 1000 nM.
Assay [33] concerns the target pErk1/2-BSA 2.7x peptide-protein conjugate (human; bovine). Kind of assay: RPA, competition: +free pErk1/2 peptide 1000 nM.
Assay [34] addresses pRb recombinant protein, human, Active Motif 31 128 (human) (UniProt P06400). As to the kind of experiment: RPA, competition: +free pErk1/2 peptide 1000 nM.
The target in assay [35] is pRb-BSA 1x peptide-protein conjugate (bovine). Kind of assay: RPA, competition: +free pErk1/2 peptide 1000 nM.
For assay [36], the target named is pErk1/2-BSA 2.7x peptide-protein conjugate (human; bovine). Kind of assay: RPA standard curve, assay 2, LOD back-calculated from one-site fit.

Sequence of Erk1-BSA 2.7x peptide-protein conjugate (human; bovine) (peptide, as listed by the source limits assumed, chain 1 of 2): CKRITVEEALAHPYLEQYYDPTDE
Sequence of Erk1-BSA 2.7x peptide-protein conjugate (human; bovine) (P02769 25-607 limits assumed, chain 2 of 2): as the sequence (P02769 25-607 limits assumed) above

In the case of “p44/42 MAPK (Erk1/2) antibody, Biosource 44-654G”, the LOD was 0.084 nM in assay [1] and 0.046 nM in assay [2].

With Histone H3 antibody, Abcam ab1791, the maximum standard curve signal in [3] is < 0.01 RFI; in assay [4], 0.04 RFI; in [5], < 0.01 RFI; in assay [6] it was < 0.01 RFI; in assay [7], < 0.01 RFI; in [8], < 0.01 RFI. The maximum standard curve signal in [9] is < 0.01 RFI; in assay [10] it was < 0.01 RFI; in assay [11], < 0.01 RFI; in [12] it was < 0.01 RFI; in assay [13] it was 0.01 RFI; in assay [14], < 0.01 RFI. Also, the maximum standard curve signal in assay [15] is 0.07 RFI; in assay [16] it was 0.19 RFI; in [17] it was 0.02 RFI; in [18] it was < 0.01 RFI; in assay [19], < 0.01 RFI. Also, the results for the LOD in [20] and in [21] were 0.178 nM and 0.141 nM, respectively.

Consider “p44/42 MAPK phospho (pERK1/2) Thr202/Tyr204 antibody, Cell Signaling Technology #9101”, for which the maximum standard curve signal in [22] was 0.01 RFI; in assay [23] it was 0.01 RFI; in assay [24] it was 0.01 RFI; in [25], 0.01 RFI; in [26], 0.01 RFI; in assay [27] it was < 0.01 RFI. The maximum standard curve signal in assay [28] was found to be 0.01 RFI; in assay [29], 0.02 RFI; in assay [30] it was 0.01 RFI; in [31] it was 0.01 RFI; in assay [32] it was 0.1 RFI; in assay [33], 0.1 RFI. Further, the maximum standard curve signal in assay [34] and in assay [35] was 0.01 RFI each time. In addition, the LOD in assay [36] was 0.032 nM.
